According to article PMC5780510, “Insights into the molecular mechanism of dehalogenation catalyzed by D-2-haloacid dehalogenase from crystal structures” (Scientific Reports, 2018):

Target: the molecule itself
Experiment: crystal structure; hanging-drop vapour diffusion, 0.1 M MES pH 6.43, 4% PEG20000, 10% PEG8000, potassium sodium tartrate, 277 K; four monomers in each asymmetric unit

B1: D-2-haloacid dehalogenase HadD AJ1 from Pseudomonas putida AJ1/23, wild type (enzyme)
chain: MNLPDNSIHLQLPRPVCEAIIRPVPEHRADQELSEIYRDLKATFGVPWVGVITQAVAYYRPFFAEAWRRFAPSAKTHFFERASDDIRIRSWELMGQSFVIEGQTDRLREMGYSVREIGQIRAVLDIFDYGNPKYLIFATAIKEGLLSGRTFGGAAGDARCHFPRSPICQIDPIPVMVEEHHAGGTLSQVYADIKQTLQLPFINSDYKAMARWPSYLEQAWGALKPCIDTPAYQAGRFDINARALAALDALPTAYRMSRDDALQAGLSEAQTDELIQVISLFQWMLSGLVLNVTHFKQQALK
notes: D-2-haloacid dehalogenase HadD AJ1, Pseudomonas putida strain AJ1/23; the 909 bp hadd aj1 gene (ENA AAA25831.1) subcloned into pET-28a between NcoI and XhoI; Homotetramer in the crystal; it gives no residue limits; also called WT; D-DEX
stoichiometry N: 4
